Source: patent US20240182911A1 (University of California, published 2024)

T1: angiotensin II type 1 receptor (AT1R) with FLAG peptide fused to its N-terminus (human, UniProt P30556 2-359)
T1 construct: also called AT1R-angiotensin II complex
T1 sequence: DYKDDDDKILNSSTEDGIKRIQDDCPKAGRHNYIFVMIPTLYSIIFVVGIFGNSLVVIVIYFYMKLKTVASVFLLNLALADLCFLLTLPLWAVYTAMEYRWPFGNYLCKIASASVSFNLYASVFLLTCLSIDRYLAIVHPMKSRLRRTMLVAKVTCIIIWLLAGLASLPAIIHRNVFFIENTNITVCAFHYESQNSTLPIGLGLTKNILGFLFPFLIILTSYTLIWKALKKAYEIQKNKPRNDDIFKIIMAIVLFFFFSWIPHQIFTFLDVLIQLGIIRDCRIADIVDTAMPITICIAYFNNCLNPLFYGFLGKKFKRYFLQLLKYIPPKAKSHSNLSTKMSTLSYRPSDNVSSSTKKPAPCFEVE


Legend:
[1] = molecular target: human serum albumin (HSA) (human, UniProt P02768 25-609); assay: on-yeast binding assay: yeast-displayed nanobody, titration of HSA, n=3, EC50 from curve fit
[2] = molecular target: T1, angiotensin II type 1 receptor (AT1R) …; assay: radioligand competition binding assay on AT1R (nanobody stabilises agonist binding in the presence of antagonist; radioligand not named), three independent experiments; column headed Affinity
[3] = molecular target: T1, angiotensin II type 1 receptor (AT1R) …; assay: on-yeast binding assay: yeast-displayed nanobody, titration of AT1R-angiotensin II complex, single replicate, EC50 from curve fit

Binder	EC50 [1] [nM]	IC50 [2] [nM]	EC50 [3] [nM]
Nb.b201i3 (VHH, also called Nb.b201 mutants) VHH: QVQLQESGGGLVQAGGSLRLSCAASGYISDAYYMGWYRQAPGKEREFVATITHGTNTYYADSVKGRFTISRDNAKNTVYLQMNSLKPEDTAVYYCAVLETRSYSFRYWGQGTQVTVSS	5.4	–	–
Nb.b201 (VHH, also called nanobody Nb.b201) VHH: QVQLQESGGGLVQAGGSLRLSCAASGYISDAYYMGWYRQAPGKEREFVATITHGTNTYYADSVKGRFTISRDNAKNTVYLQMYSLKPEDTAVYYCAVLETRSYSFRYWGQGTQVTVSS	18	–	–
Nb.b201i1 (VHH, also called Nb.b201 mutants) VHH: QVQLQESGGGLVQAGGSLRLSCAASGYISDAYYMGWYRQAPGKERGFVATITHGTNTYYADSVKGRFTISRDNAKNTVYLQMNSLKPEDTAVYYCAVLETRSYSFRYWGQGTQVTVSS	8	–	–
AT110 (VHH, also called nanobody AT110) VHH: QVQLQESGGGLVQAGGSLRLSCAASGNIFDADIMGWYRQAPGKERELVASITDGGSTNYADSVKGRFTISRDNAKNTVYLQMNSLKPEDTAVYYCAAIAYPDIPTYFDYDSDYFYWGQGTQVTVSS	–	50	257
AT110 Y113H (VHH, also called single mutation Y113H) VHH: QVQLQESGGGLVQAGGSLRLSCAASGNIFDADIMGWYRQAPGKERELVASITDGGSTNYADSVKGRFTISRDNAKNTVYLQMNSLKPEDTAVYYCAAIAYPDIPTYFDYDSDHFYWGQGTQVTVSS	–	63	35
AT110i101 (VHH, also called AT110 I98V; dominant mutation 198V (so in the source)) VHH: QVQLQESGGGLVQAGGSLRLSCAASGNIFDADIMGWYRQAPGKERELVASITDGGSTNYADSVKGRFTISRDNAKNTVYLQMNSLKPEDTAVYYCAAVAYPDIPTYFDYDSDYFYWGQGTQVTVSS	–	15	48
AT110i104 (VHH, also called AT110 R66H; single mutation R66H) VHH: QVQLQESGGGLVQAGGSLRLSCAASGNIFDADIMGWYRQAPGKERELVASITDGGSTNYADSVKGHFTISRDNAKNTVYLQMNSLKPEDTAVYYCAAIAYPDIPTYFDYDSDYFYWGQGTQVTVSS	–	31	133
AT110 R45C (VHH, also called dominant mutation R45C) VHH: QVQLQESGGGLVQAGGSLRLSCAASGNIFDADIMGWYRQAPGKECELVASITDGGSTNYADSVKGRFTISRDNAKNTVYLQMNSLKPEDTAVYYCAAIAYPDIPTYFDYDSDYFYWGQGTQVTVSS	–	–	15
AT110i102 (VHH) VHH: QVQLQESGGGLVQAGGSLRLSCAASGNIFDADIMGWYRQAPGKERELVASITDGGSTNYADSVKGHFTISRDNAKNTVYLQMNSLKPEDTAVYYCAAVAYPDIPTYFDYDSDYFYWGQGTQVTVSS	–	5	14
AT110i103 (VHH) VHH: QVQLQESGGGLVQAGGSLRLSCAASGNIFDADIMGWYRQAPGKERELVASITDGGSTNYADSVKGHFTISRDNAKNTVYLQMNSLKPEDTAVYYCAAVAYPDIPTYFDYDSDHFYWGQGTQVTVSS	–	2.5	20
